This note sets out measurements from article PMC5305259 (Molecular Biology of the Cell, 2017).

The target of the assay is T1, N-terminally tagged GFP cldn2 with the Linker domain between GFP and cldn2 (mouse, UniProt O88552 1-230).
T1 sequence: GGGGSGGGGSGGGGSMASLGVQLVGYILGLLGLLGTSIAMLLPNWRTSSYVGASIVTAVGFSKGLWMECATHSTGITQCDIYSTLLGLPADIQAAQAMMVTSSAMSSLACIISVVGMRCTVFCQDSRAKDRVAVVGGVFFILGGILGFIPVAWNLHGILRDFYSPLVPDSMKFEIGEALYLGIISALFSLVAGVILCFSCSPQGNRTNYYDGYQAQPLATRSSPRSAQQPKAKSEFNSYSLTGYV
Description: pull-down.

B1: myc-tagged N-terminal half of ZO-1 containing the PDZ domains (ZNA; amino acids 1-887) (domain or fragment, UniProt Q07157 1-887, looked up)
chain: MSARAAAAKSTAMEETAIWEQHTVTLHRAPGFGFGIAISGGRDNPHFQSGETSIVISDVLKGGPAEGQLQENDRVAMVNGVSMDNVEHAFAVQQLRKSGKNAKITIRRKKKVQIPVSRPDPEPVSDNEEDSYDEEIHDPRSGRSGVVNRRSEKIWPRDRSASRERSLSPRSDRRSVASSQPAKPTKVTLVKSRKNEEYGLRLASHIFVKEISQDSLAARDGNIQEGDVVLKINGTVTENMSLTDAKTLIERSKGKLKMVVQRDERATLLNVPDLSDSIHSANASERDDISEIQSLASDHSGRSHDRPPRRSRSRSPDQRSEPSDHSRHSPQQPSNGSLRSRDEERISKPGAVSTPVKHADDHTPKTVEEVTVERNEKQTPSLPEPKPVYAQVGQPDVDLPVSPSDGVLPNSTHEDGILRPSMKLVKFRKGDSVGLRLAGGNDVGIFVAGVLEDSPAAKEGLEEGDQILRVNNVDFTNIIREEAVLFLLDLPKGEEVTILAQKKKDVYRRIVESDVGDSFYIRTHFEYEKESPYGLSFNKGEVFRVVDTLYNGKLGSWLAIRIGKNHKEVERGIIPNKNRAEQLASVQYTLPKTAGGDRADFWRFRGLRSSKRNLRKSREDLSAQPVQTKFPAYERVVLREAGFLRPVTIFGPIADVAREKLAREEPDIYQIAKSEPRDAGTDQRSSGIIRLHTIKQIIDQDKHALLDVTPNAVDRLNYAQWYPIVVFLNPDSKQGVKTMRMRLCPESRKSARKLYERSHKLRKNNHHLFTTTINLNSMNDGWYGALKEAIQQQQNQLVWVSEGKADGATSDDLDLHDDRLSYLSAPGSEYSMYSTDSRHTSDYEDTDTEGGAYTDQELDETLNDEVGTPPESAITRSSEPVREDSSG
As for B1, the “fold binding against GFP cldn2 without the linker” value is roughly 3 fold.
